Legend:
[1] = biological target: SARS-COV-2 Spike Omicron BA.2 (on pVSV-Luc-SARS-COV-2-S pseudovirus) (SARS-COV-2) (UniProt P0DTC2)
[2] = biological target: SARS-COV-2 Spike Omicron BA.1 (on pVSV-Luc-SARS-COV-2-S pseudovirus) (SARS-COV-2) (UniProt P0DTC2)

ACE2 v2.4 (615)-Fc (IgG) (from UniProt Q9BYF1) (Fc fusion)
IC50 (read off the curve) [1]: 0.04 nM | IC50 (read off the curve) [2]: 0.02 nM

From patent US20240307512A1
